doi:10.1101/2023.04.20.537738 (bioRxiv, 2023)

Molecular target: SARS-CoV-2 HexaPro Spike (SARS-CoV-2, WA-1 / Wuhan-Hu-1 …, UniProt P0DTC2, stabilised, N-linked glycans (built in the model))
Test: cryo-EM structure

B1: STI-9167 Fab (therapeutically-modified version of FG-10A3) (Fab, V domains shown)
VH: QVQLVESGGGVVQPGRSLRLSCAASGFTFSSYGMNWVRQAPGKGLEWVAIIWYYGNNKYYVDSVKGRFTISRDNSKNTLYLQMNSLRAEDTAVYYCARKDYSKTYYGYYFDYWGQGTLVTVSS
VL: DIQMTQSPSSLSASVGDRVTITCRASQSIHSFLNWYQQKPGKPPNLLIYAASSLQSGLPSRFSGSGSGTDFTLTISSLQPEDFATYYCQQSYITPPTFGQGTKVEIK
Does B1 bind?
Result: binds
